This passage reports Kd, koff and kon results from patent US20200392227A1 (LYVGEN BIOPHARMA, published 2020).

Read-outs that look alike come from different tables or passages of the source.

In general, Kd refers to the constant that tells how readily two partners part at equilibrium. A low value points to a tighter complex. For orientation: koff means the first-order rate constant of dissociation. A lower koff goes with slow dissociation. By kon is commonly meant a measure of how fast the partners come together. Higher therefore signals fast association.

What all share (test): BLI
(In general: In BLI a coated tip is dipped into the sample, and binding shifts an interference pattern.)

Test [1] deals with T1, human FcRIIIA-F158 protein (MednaBio, E1036) (human, UniProt P08637 17-208).
T1 construct: Bought; also called FcγRIIIA(F)
T1 sequence (P08637 17-208 limits assumed): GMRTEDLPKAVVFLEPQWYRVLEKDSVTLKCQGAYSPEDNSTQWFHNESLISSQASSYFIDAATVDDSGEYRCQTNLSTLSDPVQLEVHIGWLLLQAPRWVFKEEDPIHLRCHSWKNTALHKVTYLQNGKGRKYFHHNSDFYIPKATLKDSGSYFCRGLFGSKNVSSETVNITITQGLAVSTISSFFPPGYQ

In test [2] the target is T2, human FcRIIIB protein (MednaBio, E1037) (human, UniProt O75015 17-200).
T2 construct: Bought; also called FcγRIIIB; FcgRIIIB
T2 sequence (O75015 17-200 limits assumed): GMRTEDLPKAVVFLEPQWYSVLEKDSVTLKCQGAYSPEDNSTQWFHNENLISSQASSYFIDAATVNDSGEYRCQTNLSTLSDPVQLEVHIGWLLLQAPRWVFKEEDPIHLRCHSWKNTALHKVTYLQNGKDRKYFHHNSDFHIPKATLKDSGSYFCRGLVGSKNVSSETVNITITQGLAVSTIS

The target of test [3] is T1, human FcRIIIA-F158 protein (MednaBio, …). This is another data set of the same source.
Test [4] concerns the target T2, human FcRIIIB protein (MednaBio, E1037). This is another data set of the same source.
Test [5] concerns the target T1, human FcRIIIA-F158 protein (MednaBio, …). A digest of the protocol:
(§1)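 Binding was measured by biolayer interferometry on an Octet Red96 System. Commercial human Fc receptor proteins were loaded at 20 μg/mL onto anti-penta-HIS biosensors, which were then dipped into an 8-point 1:3 dilution series of test IgG starting at 300 nM in PBS with 0.1% BSA and 0.02% Tween-20, at pH 7.2 for Fcγ receptors and pH 6 for FcRn. Kd, kon and koff were obtained by global fitting, with data fitted to a 1:1 binding model.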
The source holds these as a separate data set.

The target of test [6] is T2, human FcRIIIB protein (MednaBio, E1037). The method, boiled down: as §1
This is another data set of the same source.

In test [7] the target is T1, human FcRIIIA-F158 protein (MednaBio, …). The method, boiled down:
as §1
The source holds these as a separate data set.

The target of test [8] is T2, human FcRIIIB protein (MednaBio, E1037). A digest of the protocol:
as §1
This is another data set of the same source.

The target in test [9] is T1, human FcRIIIA-F158 protein (MednaBio, …). A digest of the protocol:
as §1
This is another data set of the same source.

In test [10] the target is T2, human FcRIIIB protein (MednaBio, E1037). The method, boiled down: as §1
The source holds these as a separate data set.

Test [11] concerns the target T3, human FcRI protein (MednaBio, E1031) (human, UniProt P12314 16-288, limits assumed).
T3 construct: Bought; loaded on anti-penta-HIS biosensors; also called FcγRI
A digest of the protocol: as §1

Test [12] has as its target T4, human FcRIIA protein (MednaBio, E1033) (human, UniProt P12318 34-218, limits assumed).
T4 construct: Bought; also called FcγRIIA
T4 sequence (looked up): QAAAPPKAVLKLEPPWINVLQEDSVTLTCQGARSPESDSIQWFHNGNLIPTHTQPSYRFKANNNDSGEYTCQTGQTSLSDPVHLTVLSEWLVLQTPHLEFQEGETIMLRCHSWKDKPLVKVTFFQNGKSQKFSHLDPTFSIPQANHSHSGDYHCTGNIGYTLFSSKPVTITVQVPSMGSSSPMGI
A digest of the protocol:
as §1

Test [13] addresses T5, human FcRIIB/C protein (MednaBio, E1034) (human, UniProt P31994 43-217, limits assumed).
T5 construct: Bought as FcRIIB/C; also called FcγRIIB; CD32B
T5 sequence (looked up): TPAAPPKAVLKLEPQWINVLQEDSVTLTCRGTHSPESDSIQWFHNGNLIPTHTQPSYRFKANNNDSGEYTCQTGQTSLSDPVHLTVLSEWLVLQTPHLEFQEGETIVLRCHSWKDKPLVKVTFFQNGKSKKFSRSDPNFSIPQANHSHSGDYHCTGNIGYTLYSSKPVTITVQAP
A digest of the protocol: as §1

Test [14] concerns the target T6, human FcRIIIA-V158 protein (MednaBio, E1035) (human, UniProt P08637 17-208).
T6 construct: Bought; also called FcγRIIIA(V); FcgRIIIA(V)
A digest of the protocol:
as §1

Test [15] addresses T7, human FcRn protein (MednaBio, E1032) (human, UniProt P55899 24-297; P61769 21-119).
T7 construct: Bought; assays at pH 6
A digest of the protocol: as §1

T3 sequence (P12314 16-288 limits assumed): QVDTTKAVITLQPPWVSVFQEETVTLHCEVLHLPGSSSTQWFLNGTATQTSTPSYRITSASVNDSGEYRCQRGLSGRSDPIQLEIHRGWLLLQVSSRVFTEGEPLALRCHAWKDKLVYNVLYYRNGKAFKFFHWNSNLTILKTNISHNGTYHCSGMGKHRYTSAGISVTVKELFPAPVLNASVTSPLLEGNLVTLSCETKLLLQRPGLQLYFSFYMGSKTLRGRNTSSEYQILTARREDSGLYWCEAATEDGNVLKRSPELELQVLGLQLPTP
T7 sequence (P55899 24-297 limits assumed, form in doubt, chain 1 of 2): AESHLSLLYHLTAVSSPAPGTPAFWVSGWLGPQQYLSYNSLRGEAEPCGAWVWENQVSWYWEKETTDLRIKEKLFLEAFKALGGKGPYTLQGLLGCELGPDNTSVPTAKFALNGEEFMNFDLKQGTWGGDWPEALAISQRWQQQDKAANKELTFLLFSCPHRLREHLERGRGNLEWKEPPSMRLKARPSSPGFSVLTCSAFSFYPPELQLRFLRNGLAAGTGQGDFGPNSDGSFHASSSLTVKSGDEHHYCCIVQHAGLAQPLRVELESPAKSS
T7 sequence (P61769 21-119 limits assumed, form in doubt, chain 2 of 2): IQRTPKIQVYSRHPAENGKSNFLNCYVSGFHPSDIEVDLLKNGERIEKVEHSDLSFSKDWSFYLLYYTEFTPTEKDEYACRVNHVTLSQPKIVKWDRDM
T6 sequence (P08637 17-208 F176V): as the sequence (P08637 17-208 limits assumed) above, with F160V counted along it

B1: wild-type human IgG1 control (antibody)
heavy: not shown
light: SYELTQPPSVSVSPGQTASITCSGDNIGDQYAHWYQQKPGQSPVLVIYQDKNRPSGIPERFSGSNSGNTATLTISGTQAMDEADYYCATYTGFGSLAVFGGGTKLTVLGQPKAAPSVTLFPPSSEELQANKATLVCLISDFYPGAVTVAWKADSSPVKAGVETTTPSKQSNNKYAASSYLSLTPEQWKSHRSYSCQVTHEGSTVEKTVAPTECS
notes: Control IgG
For B1, the Kd in test [1] was 120 nM; in [2], 130 nM; in [3], 120 nM; in [4], 130 nM; in [5], 120 nM; in [6] it was 130 nM. Moreover, the equilibrium dissociation constant (Kd) in test [7] worked out at 120 nM; in [8], 130 nM; in test [9] it was 120 nM; in [10] it was 130 nM. For the same molecule, the off-rate constant (koff) in [1] came to 0.02 s⁻¹; in test [2], 0.027 s⁻¹; in test [3], 0.02 s⁻¹; in [4], 0.027 s⁻¹; in test [5], 0.02 s⁻¹; in [6], 0.027 s⁻¹. The koff in test [7] came to 0.02 s⁻¹; in [8], 0.027 s⁻¹; in [9], 0.02 s⁻¹; in [10], 0.027 s⁻¹. For the same molecule, the kon in test [1] was determined as 170000 M⁻¹ s⁻¹; in [2], 210000 M⁻¹ s⁻¹; in [3] it was 170000 M⁻¹ s⁻¹; in test [4], 210000 M⁻¹ s⁻¹; in test [5] it was 170000 M⁻¹ s⁻¹; in test [6], 210000 M⁻¹ s⁻¹. For the same molecule, the on-rate constant (kon) in test [7] came out at 170000 M⁻¹ s⁻¹; in [8], 210000 M⁻¹ s⁻¹; in [9], 170000 M⁻¹ s⁻¹; in test [10] it was 210000 M⁻¹ s⁻¹.

B2: wild-type human IgG4 control (antibody)
heavy: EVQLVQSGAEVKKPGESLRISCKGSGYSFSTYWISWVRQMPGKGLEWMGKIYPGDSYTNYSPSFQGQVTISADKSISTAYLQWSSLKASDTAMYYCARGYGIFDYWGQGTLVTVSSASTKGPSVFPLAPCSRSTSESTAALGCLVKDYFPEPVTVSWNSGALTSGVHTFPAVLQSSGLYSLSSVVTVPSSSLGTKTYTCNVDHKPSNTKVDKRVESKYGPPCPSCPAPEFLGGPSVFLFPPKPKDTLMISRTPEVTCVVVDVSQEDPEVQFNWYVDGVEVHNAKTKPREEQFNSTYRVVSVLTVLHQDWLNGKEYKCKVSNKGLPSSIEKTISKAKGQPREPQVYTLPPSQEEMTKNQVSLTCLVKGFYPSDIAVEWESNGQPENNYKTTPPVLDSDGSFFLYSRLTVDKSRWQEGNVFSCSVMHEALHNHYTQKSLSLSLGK
light: SYELTQPPSVSVSPGQTASITCSGDNIGDQYAHWYQQKPGQSPVLVIYQDKNRPSGIPERFSGSNSGNTATLTISGTQAMDEADYYCATYTGFGSLAVFGGGTKLTVLGQPKAAPSVTLFPPSSEELQANKATLVCLISDFYPGAVTVAWKADSSPVKAGVETTTPSKQSNNKYAASSYLSLTPEQWKSHRSYSCQVTHEGSTVEKTVAPTECS
notes: Control IgG
For the molecule B2, the dissociation constant Kd amounted to 4.8 nM in test [11]; 400 nM in test [12]; 400 nM in test [13]; 550 nM in [14]; 18 nM in [15]. Also, the off-rate constant (koff) was 0.0017 s⁻¹ in test [11]; 0.055 s⁻¹ in [12]; 0.05 s⁻¹ in test [13]; 0.092 s⁻¹ in [14]; 0.012 s⁻¹ in [15]. Moreover, the on-rate (kon) worked out at 360000 M⁻¹ s⁻¹ in [11]; 140000 M⁻¹ s⁻¹ in test [12]; 140000 M⁻¹ s⁻¹ in test [13]; 170000 M⁻¹ s⁻¹ in [14]; 640000 M⁻¹ s⁻¹ in [15].
